Data taken from patent publication US20120034163A1, “NON-INVASIVE TOOLS FOR DETECTING VULNERABLE ATHEROSCLEROTIC PLAQUES” (UNIVERSITE JOSEPH FOURIER, priority 2009, published 2012).
Where no end group is shown, it is not given here.

How the values were obtained:
[1] = target: T1, VCAM-1 expression in the atherosclerotic lesion (Mus musculus, UniProt P29533); assay: Carotid activity ratios from gamma-well counting of excised vessels and blood; type: in vivo, ApoE−/− mice; conditions: for Left-to-right carotid artery activity ratio compared with EP43: FIG. 4; for Left carotid-to-blood activity ratio compared with EP43: FIG. 5
T1 construct: The inventors observed a positive VCAM-1 staining in the atherosclerotic lesion as compared with a contralateral vessel; from tissue; host or cells: ligated left carotid artery (atherosclerotic lesion) of living ApoE-/- mice
T1 sequence (P29533 25-739): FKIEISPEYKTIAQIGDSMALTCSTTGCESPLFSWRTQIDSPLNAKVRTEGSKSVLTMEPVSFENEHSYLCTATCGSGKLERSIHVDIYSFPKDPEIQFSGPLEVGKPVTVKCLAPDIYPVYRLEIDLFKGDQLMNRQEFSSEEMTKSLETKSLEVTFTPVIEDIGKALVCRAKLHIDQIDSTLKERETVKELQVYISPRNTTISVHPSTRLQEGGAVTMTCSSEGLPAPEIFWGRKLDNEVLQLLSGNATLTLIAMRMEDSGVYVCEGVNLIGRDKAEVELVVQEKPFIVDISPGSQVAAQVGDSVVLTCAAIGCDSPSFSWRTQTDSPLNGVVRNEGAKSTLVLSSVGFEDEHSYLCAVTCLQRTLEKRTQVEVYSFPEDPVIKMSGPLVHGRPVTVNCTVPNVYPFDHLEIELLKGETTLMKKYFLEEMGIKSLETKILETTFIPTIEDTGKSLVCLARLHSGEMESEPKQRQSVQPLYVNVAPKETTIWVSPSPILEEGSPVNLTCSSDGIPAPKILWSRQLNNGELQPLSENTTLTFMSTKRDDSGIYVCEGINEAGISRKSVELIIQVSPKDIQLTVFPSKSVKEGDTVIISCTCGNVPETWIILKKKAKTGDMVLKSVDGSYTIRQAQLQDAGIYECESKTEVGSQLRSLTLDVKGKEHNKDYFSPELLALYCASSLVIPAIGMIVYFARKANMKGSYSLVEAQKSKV
Text: The inventors also analyzed the left-to-right carotid activity ratios (FIG. 1) and left carotid-to-blood activity ratios (FIG. 2). These ratios were obtained from gamma-well counting of excised vessels and blood.

[2] = target: T1, VCAM-1 expression in the atherosclerotic lesion; assay: In vivo whole-body planar imaging; set-up: species or system ApoE−/− mice; conditions: for Left-to-right carotid activity ratio from quantified planar images compared to EP43: FIG. 8, FIG. 9; for Non invasive imaging of tracer uptake in the carotid atherosclerotic lesion: whole-body planar images, similar dose of tracer, FIG. 6
Protocol: In vivo planar imaging was performed using a small-animal dedicated gamma-camera equipped with a parallel-hole collimator.

[3] = target: T2, VCAM-1 expression in atherosclerotic lesions (Mus musculus, UniProt P29533); assay: In vivo pinhole SPECT imaging; set-up: species or system ApoE−/− mice
T2 construct: The inventors observed a positive VCAM-1 staining in the atherosclerotic lesion as compared with a contralateral vessel; from tissue; host or cells: ligated left carotid artery (atherosclerotic lesion) of living ApoE-/- mice
T2 sequence (P29533 25-739): T1 sequence (P29533 25-739)
Protocol: In vivo pinhole SPECT imaging was performed using a small-animal dedicated gamma-camera equipped with a pinhole collimator for high-resolution imaging.

[4] = Organ biodistribution of 99mTc-labelled tracers by gamma-well counting of excised organs; conditions: 3 hours after injection
Protocol: An experimental model of ApoE^−/− mice with left carotid artery ligation was used.
Left carotid artery ligation was performed under anesthesia and the animals were returned to their cages. Three weeks later, the animals were re-anesthetized and the radiotracers were injected in a lateral tail vein. Planar imaging was performed for 3 hours before the animals were euthanized. The major organs were excised, weighed and gamma-well counted for the determination of the tracers' biodistribution.

VCAM-1 = target: T3, VCAM-1 (Homo sapiens, UniProt P19320); conditions: Ling et al. (2000); cited from earlier work
T3 sequence (P19320 25-739): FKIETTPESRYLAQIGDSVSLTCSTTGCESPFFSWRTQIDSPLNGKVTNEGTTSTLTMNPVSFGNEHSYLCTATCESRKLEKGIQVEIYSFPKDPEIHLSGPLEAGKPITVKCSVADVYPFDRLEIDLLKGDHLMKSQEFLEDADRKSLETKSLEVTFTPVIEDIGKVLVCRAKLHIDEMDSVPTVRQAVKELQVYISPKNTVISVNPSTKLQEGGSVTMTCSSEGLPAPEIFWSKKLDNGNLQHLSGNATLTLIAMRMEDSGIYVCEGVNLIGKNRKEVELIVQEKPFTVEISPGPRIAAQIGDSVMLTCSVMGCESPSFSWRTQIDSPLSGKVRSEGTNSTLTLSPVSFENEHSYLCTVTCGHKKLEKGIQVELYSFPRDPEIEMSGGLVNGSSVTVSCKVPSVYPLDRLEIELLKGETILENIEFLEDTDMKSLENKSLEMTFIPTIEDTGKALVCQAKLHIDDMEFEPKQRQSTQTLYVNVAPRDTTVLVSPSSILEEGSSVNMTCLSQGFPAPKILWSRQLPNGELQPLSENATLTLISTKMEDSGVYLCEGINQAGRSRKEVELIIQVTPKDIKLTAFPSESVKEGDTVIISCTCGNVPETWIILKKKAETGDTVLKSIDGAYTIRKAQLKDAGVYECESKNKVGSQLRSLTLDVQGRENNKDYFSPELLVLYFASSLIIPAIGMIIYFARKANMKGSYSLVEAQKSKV

[5] = high resolution pinhole SPECT, FIG. 10

Row | Sequence | Left-to-right carotid artery activity ratio compared with EP43 [1] | Left carotid-to-blood activity ratio compared with EP43 [1] | Left-to-right carotid activity ratio from quantified planar images compared to EP43 [2] | Non invasive imaging of tracer uptake in the carotid atherosclerotic lesion [2] | Binding to VCAM-1 (VCAM-1) | further results
1 | HGRANLRILAAY (also: 99mTc label) [EP52] | did not display improved | did not display improved | did not display improved |  |  | 
2 | HGRANLRILARA (also: 99mTc label) [EP51] | did not display improved | did not display improved | did not display improved |  |  | 
3 | HGRANLRILARY (not fully specified; also: 99mTc label) [EP43] |  |  |  | allowed the detection of VCAM-1 expression in the atherosclerotic lesion |  | Tracer activity in the atherosclerotic lesion versus contralateral vessel, image quantification ([3]; all animals, FIG. 11): significantly higher mean tracer activity; In vivo SPECT imaging of VCAM-1 expression in atherosclerotic lesions ([3]; conclusion): allowed in vivo SPECT imaging of VCAM-1 expression in atherosclerotic lesions; Tracer activity in the right carotid area [3, 5]: no significant tracer activity could be detected; Tracer uptake at the atherosclerotic lesion (left carotid) [3, 5]: uptake at the level of the atherosclerotic lesion; Left carotid activity, compared among tracers [4]: highest left carotid activity; Tracer activity in the atherosclerotic lesion versus contralateral, control carotid [4]: significantly higher; Left-to-right carotid activity ratio versus B2702-p ([1]; gamma-well counting, FIG. 1): significantly higher; Left carotid-to-blood activity ratio versus B2702-p ([1]; gamma-well counting, FIG. 2): significantly higher; Quantification of planar images, compared with other evaluated tracers ([2]; FIG. 7): superiority
4 | HGRENLRIALRY [B2702-p, parent tracer, reference compound] |  |  |  | high circulating blood activity precluded the non invasive imaging | bind specifically | 
5 | YRLAIRLNER RENLRIALRY (YRLAIRLNERRENLRIALRY; B2702-rp) |  |  |  |  | bind specifically | 
